In the supplement of paper PMC5998384:

Assays:
[1] = tested on: HeLa Kyoto; assay: melting temperature (median over replicates), in situ; higher = more thermally stable
[2] = tested on: HeLa Kyoto; assay: thermal stability score vs G1/S (z-score of summed log2 fold changes over temperatures); higher = more thermally stable than in G1/S
[3] = tested on: HeLa Kyoto; assay: solubility in G1/S (NP-40 vs SDS abundance) (log2 ratio); higher = more soluble; conditions: cell cycle stage: G1/S
[4] = tested on: HeLa Kyoto; assay: solubility change mitosis vs G1/S (difference of NP-40 vs SDS log2 ratios) (log2 ratio difference); higher = more soluble in mitosis
[5] = cell cycle stage: early G1 (4.5 h after nocodazole release)
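Throughout, for melting temperature (median over replicates), in situ: HeLa Kyoto cells synchronized by double thymidine or nocodazole block, proteins quantified by TMT10plex mass spectrometry, three independent biological replicates.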
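Throughout, for solubility change mitosis vs G1/S (difference of NP-40 vs SDS log2 ratios): synchronized HeLa Kyoto cells (double thymidine block for G1/S, nocodazole release for mitosis), protein amounts in NP-40 versus SDS lysates quantified by mass spectrometry, three biological replicates.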
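Throughout, for solubility in G1/S (NP-40 vs SDS abundance): HeLa Kyoto cells arrested at G1/S by double thymidine block, proteins quantified by TMT10plex mass spectrometry in mild NP-40 versus SDS extracts, three biological replicates.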
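Throughout, for thermal stability score vs G1/S (z-score of summed log2 fold changes over temperatures): synchronized HeLa Kyoto cells, proteins quantified by TMT10plex mass spectrometry, three biological replicates, mitosis taken 0.5 h after nocodazole release, G1/S directly after double thymidine block.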

Row | Sequence | melting temperature ([1]; cell cycle stage: mitosis) [°C] | thermal stability score [2, 5] | thermal stability score ([2]; cell cycle stage: mitosis) | solubility in G1/S (log2) [3] | solubility change mitosis (log2) [4] | melting temperature ([1]; cell cycle stage: G1/S) [°C]
1 | MLPARCARLLTPHLLLVLVQLSPARGHRTTGPRFLISDRDPQCNLHCSRTQPKPICASDGRSYESMCEYQRAKCRDPTLGVVHRGRCKDAGQSKCRLERAQALEQAKKPQEAVFVPECGEDGSFTQVQCHTYTGYCWCVTPDGKPISGSSVQNKTPVCSGSVTDKPLSQGNSGRKDDGSKPTPTMETQPVFDGDEITAPTLWIKHLVIKDSKLNNTNIRNSEKVYSCDQERQSALEEAQQNPREGIVIPECAPGGLYKPVQCHQSTGYCWCVLVDTGRPLPGTSTRYVMPSCESDARAKTTEADDPFKDRELPGCPEGKKMEFITSLLDALTTDMVQAINSAAPTGGGRFSEPDPSHTLEERVVHWYFSQLDSNSSNDINKREMKPFKRYVKKKAKPKKCARRFTDYCDLNKDKVISLPELKGCLGVSKEGRLV [SMOC1] | 54.9 | -1.94 | -1.17 | 0.221 | -0.0568 | 
2 | MADGELNVDSLITRLLEVRGCRPGKIVQMTEAEVRGLCIKSREIFLSQPILLELEAPLKICGDIHGQYTDLLRLFEYGGFPPEANYLFLGDYVDRGKQSLETICLLLAYKIKYPENFFLLRGNHECASINRIYGFYDECKRRFNIKLWKTFTDCFNCLPIAAIVDEKIFCCHGGLSPDLQSMEQIRRIMRPTDVPDTGLLCDLLWSDPDKDVQGWGENDRGVSFTFGADVVSKFLNRHDLDLICRAHQVVEDGYEFFAKRQLVTLFSAPNYCGEFDNAGGMMSVDETLMCSFQILKPSEKKAKYQYGGLNSGRPVTPPRTANPPKKR [PPP1CB] | 52.1 | 0.423 | 0.737 | -0.161 | 0.0171 | 52.3
3 | MTMDKSELVQKAKLAEQAERYDDMAAAMKAVTEQGHELSNEERNLLSVAYKNVVGARRSSWRVISSIEQKTERNEKKQQMGKEYREKIEAELQDICNDVLELLDKYLIPNATQPESKVFYLKMKGDYFRYLSEVASGDNKQTTVSNSQQAYQEAFEISKKEMQPTHPIRLGLALNFSVFYYEILNSPEKACSLAKTAFDEAIAELDTLNEESYKDSTLIMQLLRDNLTLWTSENQGDEGDAGEGEN [YWHAB] | 52.8 | -1.46 | -2.76 | 0.324 | 0.402 | 52.6
